The text below walks through data of US20250367130A1, “THERMORESPONSIVE HYDROGEL CONTAINING METAL-ORGANIC FRAMEWORK PARTICLES FOR NONINVASIVE OCULAR DRUG DELIVERY” (University of Pittsburgh - Of the Commonwealth System of …, priority 2024, published 2025).

The series is described as follows: Biodistribution study of ovalbumin in rabbit eye tissues and plasma, quantified with ELISA. The format is in vivo, New Zealand white rabbits. As to the method:
Biodistribution studies involved healthy New Zealand white rabbits (n=5). The right eye of the rabbits was given a 100 μL of gel with the MOF and PLGA MP particles, independently, and a 50 μL injection of 10 mg/mL ovalbumin solution, for comparative purposes. The left eye was the experimental control. At 1 and 3 days, rabbits were sacrificed, and both eyes were removed. Aqueous humor, vitreous humor, retina-choroid and plasma were collected, and time-dependent concentrations were quantified with ELISA.
After one administration of the topical delivery system, ovalbumin is detectable in the aqueous humor, vitreous humor, retina-choroid, and plasma. […] However, these concentrations are 10^5 lower than what is seen with intravitreal injections after 3 days.
On the technique in general: ELISA stands for enzyme-linked immunosorbent assay.

Where [1] appears, read: after one administration of the topical delivery system, rabbit.

B1: ovalbumin (protein, UniProt P01012 2-386, looked up)
Ovalbumin: GSIGAASMEFCFDVFKELKVHHANENIFYCPIAIMSALAMVYLGAKDSTRTQINKVVRFDKLPGFGDSIEAQCGTSVNVHSSLRDILNQITKPNDVYSFSLASRLYAEERYPILPEYLQCVKELYRGGLEPINFQTAADQARELINSWVESQTNGIIRNVLQPSSVDSQTAMVLVNAIVFKGLWEKAFKDEDTQAMPFRVTEQESKPVQMMYQIGLFRVASMASEKMKILELPFASGTMSMLVLLPDEVSGLEQLESIINFEKLTEWTSSNVMEERKIKVYLPRMKMEEKYNLTSVLMAMGITDVFSSSANLSGISSAESLKISQAVHAAHAEINEAGREVVGSAEAGVDAASVSEEFRADHPFLFCIKHIATNAVLFFGRCVSP
notes: test agent, acting as a surrogate agent for other anti-VEGF proteins
Turning to B1, for the setting “after one administration of the topical delivery system (100 μL gel with particles), rabbit”, the “ovalbumin detection in aqueous humor” value is recorded as “detectable”. Further, under setting [1], the “ovalbumin concentration in retina-choroid relative to vitreous humor” value is 9 ×, the “ovalbumin concentration in the vitreous humor” value is about 1 ng/mL, the “ovalbumin detection in plasma” value is given as “detectable” and the “ovalbumin detection in retina-choroid” value is reported as “detectable”. In addition, the “ovalbumin detection in vitreous humor” value under setting [1] is listed as “detectable”. The “factor by which concentrations are lower than with intravitreal injections” value (topical delivery system vs intravitreal injection, after 3 days) is 10^5.
